From article PMC9798723

What was measured:
[1] = biological target: synthetic Aβ42CC (amyloid-β 1-42 peptide with A21C/A30C mutations) (human); assay: SEC-MALS; synthetic Aβ42CC 0.6 mg/mL, 50 min at RT after neutralisation to pH 7.2, then frozen; TSK-GEL G4000SWxl, 20 mM sodium phosphate, 150 mM NaCl, pH 7.4, autosampler 5 °C
[2] = biological target: synthetic Aβ42CC (amyloid-β 1-42 peptide with A21C/A30C mutations) (human); assay: SEC-MALS; oligomeric preparations (synthetic Aβ42CC 8 h or 24 h at RT at pH 7.2, or aggregated at RT in PBS at 0.6 mg/mL; recombinant Aβ42CC after concentration or incubation); TSK-GEL G4000SWxl, 20 mM sodium phosphate, 150 mM NaCl, pH 7.4, autosampler 5 °C

- oligomer content [2]: > 94%
Substance: synthetic Aβ42CC (amyloid-β 1-42 peptide with A21C/A30C mutations)
- percent of the peptide present as 104 kDa oligomers [1]: 20%
